B1: Acid-sensing ion channel 3 (Rattus norvegicus (Rat)), O35240 (parent)
chain: MKPRSGLEEAQRRQASDIRVFASSCTMHGLGHIFGPGGLTLRRGLWATAVLLSLAAFLYQVAERVRYYGEFHHKTTLDERESHQLTFPAVTLCNINPLRRSRLTPNDLHWAGTALLGLDPAEHAAYLRALGQPPAPPGFMPSPTFDMAQLYARAGHSLEDMLLDCRYRGQPCGPENFTVIFTRMGQCYTFNSGAHGAELLTTPKGGAGNGLEIMLDVQQEEYLPIWKDMEETPFEVGIRVQIHSQDEPPAIDQLGFGAAPGHQTFVSCQQQQLSFLPPPWGDCNTASLDPDDFDPEPSDPLGSPRPRPSPPYSLIGCRLACESRYVARKCGCRMMHMPGNSPVCSPQQYKDCASPALDAMLRKDTCVCPNPCATTRYAKELSMVRIPSRASARYLARKYNRSESYITENVLVLDIFFEALNYEAVEQKAAYEVSELLGDIGGQMGLFIGASLLTILEILDYLCEVFQDRVLGYFWNRRSAQKRSGNTLLQEELNGHRTHVPHLSLGPRPPTTPCAVTKTLSASHRTCYLVTRL
partner: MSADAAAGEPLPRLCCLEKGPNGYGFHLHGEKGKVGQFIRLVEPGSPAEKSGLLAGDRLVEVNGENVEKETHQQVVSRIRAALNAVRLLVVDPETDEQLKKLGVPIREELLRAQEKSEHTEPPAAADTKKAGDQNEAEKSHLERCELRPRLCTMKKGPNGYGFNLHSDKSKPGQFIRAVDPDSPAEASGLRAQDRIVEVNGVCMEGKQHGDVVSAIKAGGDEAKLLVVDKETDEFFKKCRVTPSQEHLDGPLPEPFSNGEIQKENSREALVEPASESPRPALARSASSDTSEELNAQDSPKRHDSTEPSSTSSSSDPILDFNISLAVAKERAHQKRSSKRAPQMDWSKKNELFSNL

Variants of: B1
Details: with nhrf1_rat Nherf1, Q9JJ19

Variant | effect of a mutation on the interaction
MKPRSGLEEAQRRQASDIRVFASSCTMHGLGHIFGPGGLTLRRGLWATAVLLSLAAFLYQVAERVRYYGEFHHKTTLDERESHQLTFPAVTLCNINPLRRSRLTPNDLHWAGTALLGLDPAEHAAYLRALGQPPAPPGFMPSPTFDMAQLYARAGHSLEDMLLDCRYRGQPCGPENFTVIFTRMGQCYTFNSGAHGAELLTTPKGGAGNGLEIMLDVQQEEYLPIWKDMEETPFEVGIRVQIHSQDEPPAIDQLGFGAAPGHQTFVSCQQQQLSFLPPPWGDCNTASLDPDDFDPEPSDPLGSPRPRPSPPYSLIGCRLACESRYVARKCGCRMMHMPGNSPVCSPQQYKDCASPALDAMLRKDTCVCPNPCATTRYAKELSMVRIPSRASARYLARKYNRSESYITENVLVLDIFFEALNYEAVEQKAAYEVSELLGDIGGQMGLFIGASLLTILEILDYLCEVFQDRVLGYFWNRRSAQKRSGNTLLQEELNGHRTHVPHLSLGPRPPTTPCAVTKTLSAGHRTCYLVTRL [S523G] | decreasing interaction
MKPRSGLEEAQRRQASDIRVFASSCTMHGLGHIFGPGGLTLRRGLWATAVLLSLAAFLYQVAERVRYYGEFHHKTTLDERESHQLTFPAVTLCNINPLRRSRLTPNDLHWAGTALLGLDPAEHAAYLRALGQPPAPPGFMPSPTFDMAQLYARAGHSLEDMLLDCRYRGQPCGPENFTVIFTRMGQCYTFNSGAHGAELLTTPKGGAGNGLEIMLDVQQEEYLPIWKDMEETPFEVGIRVQIHSQDEPPAIDQLGFGAAPGHQTFVSCQQQQLSFLPPPWGDCNTASLDPDDFDPEPSDPLGSPRPRPSPPYSLIGCRLACESRYVARKCGCRMMHMPGNSPVCSPQQYKDCASPALDAMLRKDTCVCPNPCATTRYAKELSMVRIPSRASARYLARKYNRSESYITENVLVLDIFFEALNYEAVEQKAAYEVSELLGDIGGQMGLFIGASLLTILEILDYLCEVFQDRVLGYFWNRRSAQKRSGNTLLQEELNGHRTHVPHLSLGPRPPTTPCAVTKTLSADHRTCYLVTRL [S523D] | increasing interaction
